From IntAct's records for PubMed 22135460

How the values were obtained:
ltact_bpt4 33 = target: T1, ltact_bpt4 33 (UniProt P13338)
T1 sequence: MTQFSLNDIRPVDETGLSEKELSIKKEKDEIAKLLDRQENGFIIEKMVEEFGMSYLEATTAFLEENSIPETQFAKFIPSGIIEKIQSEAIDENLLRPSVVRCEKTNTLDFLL

rpod_ecoli rpoD = rpod_ecoli rpoD (UniProt P00579)
rpos_ecoli rpoS = rpos_ecoli rpoS (UniProt P13445)
Chain of rpos_ecoli rpoS (P13445 whole entry): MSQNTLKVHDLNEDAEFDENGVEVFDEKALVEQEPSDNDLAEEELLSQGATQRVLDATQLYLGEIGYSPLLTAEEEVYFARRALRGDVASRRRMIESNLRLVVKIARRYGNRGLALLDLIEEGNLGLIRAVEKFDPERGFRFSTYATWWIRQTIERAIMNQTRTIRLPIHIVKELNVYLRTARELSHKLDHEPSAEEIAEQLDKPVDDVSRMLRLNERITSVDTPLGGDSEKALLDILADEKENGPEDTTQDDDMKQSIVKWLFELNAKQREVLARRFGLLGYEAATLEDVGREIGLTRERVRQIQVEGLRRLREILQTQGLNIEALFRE

Chain of rpod_ecoli rpoD (P00579 whole entry): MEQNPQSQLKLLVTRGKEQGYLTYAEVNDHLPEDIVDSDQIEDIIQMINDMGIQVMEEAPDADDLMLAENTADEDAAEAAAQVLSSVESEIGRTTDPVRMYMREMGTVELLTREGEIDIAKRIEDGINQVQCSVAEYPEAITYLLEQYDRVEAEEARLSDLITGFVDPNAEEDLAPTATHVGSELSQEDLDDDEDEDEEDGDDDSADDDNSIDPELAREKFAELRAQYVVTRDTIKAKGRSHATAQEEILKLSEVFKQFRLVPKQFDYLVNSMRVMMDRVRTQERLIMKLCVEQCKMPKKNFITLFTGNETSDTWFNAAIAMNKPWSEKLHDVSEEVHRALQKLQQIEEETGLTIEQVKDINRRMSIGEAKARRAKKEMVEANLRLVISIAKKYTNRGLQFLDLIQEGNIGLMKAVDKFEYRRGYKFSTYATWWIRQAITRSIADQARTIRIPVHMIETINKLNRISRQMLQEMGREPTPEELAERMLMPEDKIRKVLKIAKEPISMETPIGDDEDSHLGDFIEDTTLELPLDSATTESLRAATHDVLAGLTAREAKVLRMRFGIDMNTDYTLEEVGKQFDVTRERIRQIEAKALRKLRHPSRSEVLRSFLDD

Substance	effect of a mutation on the interaction (ltact_bpt4 33)	effect of a mutation on the interaction (rpod_ecoli rpoD)	effect of a mutation on the interaction (rpos_ecoli rpoS)
DNA-directed RNA polymerase subunit beta (Escherichia coli (strain K12)) (from UniProt P0A8V2) E899A	disrupting interaction strength	decreasing interaction strength	
DNA-directed RNA polymerase subunit beta (Escherichia coli (strain K12)) (from UniProt P0A8V2) E898A	disrupting interaction strength	disrupting interaction strength	decreasing interaction strength
DNA-directed RNA polymerase subunit beta (Escherichia coli (strain K12)) (from UniProt P0A8V2) K900A	disrupting interaction strength	disrupting interaction strength	
DNA-directed RNA polymerase subunit beta (Escherichia coli (strain K12)) (from UniProt P0A8V2) L902A	disrupting interaction strength	disrupting interaction strength	decreasing interaction strength
DNA-directed RNA polymerase subunit beta (Escherichia coli (strain K12)) (from UniProt P0A8V2) R903A	disrupting interaction strength	decreasing interaction strength	decreasing interaction strength
DNA-directed RNA polymerase subunit beta (Escherichia coli (strain K12)) (from UniProt P0A8V2) K900E	disrupting interaction strength		
DNA-directed RNA polymerase subunit beta (Escherichia coli (strain K12)) (from UniProt P0A8V2) F906A	disrupting interaction strength	disrupting interaction strength	decreasing interaction strength
DNA-directed RNA polymerase subunit beta (Escherichia coli (strain K12)) (from UniProt P0A8V2) I905A	disrupting interaction strength	disrupting interaction strength	decreasing interaction strength
DNA-directed RNA polymerase subunit beta (Escherichia coli (strain K12)) (from UniProt P0A8V2) L901A	disrupting interaction strength	disrupting interaction strength	disrupting interaction strength
